Data: IntAct's records for PubMed 21763699

B1: Peripheral plasma membrane protein CASK (Homo sapiens), O14936 (parent)
chain: MADDDVLFEDVYELCEVIGKGPFSVVRRCINRETGQQFAVKIVDVAKFTSSPGLSTEDLKREASICHMLKHPHIVELLETYSSDGMLYMVFEFMDGADLCFEIVKRADAGFVYSEAVASHYMRQILEALRYCHDNNIIHRDVKPHCVLLASKENSAPVKLGGFGVAIQLGESGLVAGGRVGTPHFMAPEVVKREPYGKPVDVWGCGVILFILLSGCLPFYGTKERLFEGIIKGKYKMNPRQWSHISESAKDLVRRMLMLDPAERITVYEALNHPWLKERDRYAYKIHLPETVEQLRKFNARRKLKGAVLAAVSSHKFNSFYGDPPEELPDFSEDPTSSGLLAAERAVSQVLDSLEEIHALTDCSEKDLDFLHSVFQDQHLHTLLDLYDKINTKSSPQIRNPPSDAVQRAKEVLEEISCYPENNDAKELKRILTQPHFMALLQTHDVVAHEVYSDEALRVTPPPTSPYLNGDSPESANGDMDMENVTRVRLVQFQKNTDEPMGITLKMNELNHCIVARIMHGGMIHRQGTLHVGDEIREINGISVANQTVEQLQKMLREMRGSITFKIVPSYRTQSSSCERDSPSTSRQSPANGHSSTNNSVSDLPSTTQPKGRQIYVRAQFEYDPAKDDLIPCKEAGIRFRVGDIIQIISKDDHNWWQGKLENSKNGTAGLIPSPELQEWRVACIAMEKTKQEQQASCTWFGKKKKQYKDKYLAKHNAVFDQLDLVTYEEVVKLPAFKRKTLVLLGAHGVGRRHIKNTLITKHPDRFAYPIPHTTRPPKKDEENGKNYYFVSHDQMMQDISNNEYLEYGSHEDAMYGTKLETIRKIHEQGLIAILDVEPQALKVLRTAEFAPFVVFIAAPTITPGLNEDESLQRLQKESDILQRTYAHYFDLTIINNEIDETIRHLEEAVELVCTAPQWVPVSWVY
B2: Peripheral plasma membrane protein CASK (Homo sapiens), O14936 (parent)
chain: B1 chain
partner: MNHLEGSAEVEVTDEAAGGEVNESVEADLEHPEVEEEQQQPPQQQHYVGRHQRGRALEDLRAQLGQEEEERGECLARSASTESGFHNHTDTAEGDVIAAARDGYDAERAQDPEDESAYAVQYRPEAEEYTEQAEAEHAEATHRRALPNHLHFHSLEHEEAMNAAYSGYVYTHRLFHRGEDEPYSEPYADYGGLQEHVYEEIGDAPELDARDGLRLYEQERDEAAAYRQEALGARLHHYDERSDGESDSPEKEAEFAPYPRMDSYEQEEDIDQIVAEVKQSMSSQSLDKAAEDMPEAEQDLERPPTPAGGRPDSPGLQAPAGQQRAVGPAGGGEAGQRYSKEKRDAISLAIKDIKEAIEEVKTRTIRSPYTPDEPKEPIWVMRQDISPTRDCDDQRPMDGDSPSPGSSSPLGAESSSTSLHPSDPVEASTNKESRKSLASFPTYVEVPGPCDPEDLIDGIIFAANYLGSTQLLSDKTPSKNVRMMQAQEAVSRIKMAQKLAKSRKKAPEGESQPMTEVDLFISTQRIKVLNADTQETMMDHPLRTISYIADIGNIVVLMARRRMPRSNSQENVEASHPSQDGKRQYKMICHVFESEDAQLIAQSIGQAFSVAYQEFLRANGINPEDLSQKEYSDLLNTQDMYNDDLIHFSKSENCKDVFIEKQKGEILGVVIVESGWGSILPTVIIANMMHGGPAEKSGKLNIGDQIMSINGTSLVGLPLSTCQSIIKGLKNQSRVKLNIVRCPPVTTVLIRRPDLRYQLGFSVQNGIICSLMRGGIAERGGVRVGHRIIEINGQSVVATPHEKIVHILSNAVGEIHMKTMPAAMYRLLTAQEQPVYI
B3: Caskin-1 (Homo sapiens), Q8WXD9 (parent)
chain: MGKEQELVQAVKAEDVGTAQRLLQRPRPGKAKLLGSTKKINVNFQDPDGFSALHHAALNGNTELISLLLEAQAAVDIKDNKGMRPLHYAAWQGRKEPMKLVLKAGSAVNIPSDEGHIPLHLAAQHGHYDVSEMLLQHQSNPCMVDNSGKTPLDLACEFGRVGVVQLLLSSNMCAALLEPRPGDATDPNGTSPLHLAAKNGHIDIIRLLLQAGIDINRQTKSGTALHEAALCGKTEVVRLLLDSGINAHVRNTYSQTALDIVHQFTTSQASREIKQLLREASAALQVRATKDYCNNYDLTSLNVKAGDIITVLEQHPDGRWKGCIHDNRTGNDRVGYFPSSLGEAIVKRAGSRAGTEPSLPQGSSSSGPSAPPEEIWVLRKPFAGGDRSGSISGMAGGRGSGGHALHAGSEGVKLLATVLSQKSVSESGPGDSPAKPPEGSAGVARSQPPVAHAGQVYGEQPPKKLEPASEGKSSEAVSQWLTAFQLQLYAPNFISAGYDLPTISRMTPEDLTAIGVTKPGHRKKIAAEISGLSIPDWLPEHKPANLAVWLSMIGLAQYYKVLVDNGYENIDFITDITWEDLQEIGITKLGHQKKLMLAVRKLAELQKAEYAKYEGGPLRRKAPQSLEVMAIESPPPPEPTPADCQSPKMTTFQDSELSDELQAAMTGPAEVGPTTEKPSSHLPPTPRATTRQDSSLGGRARHMSSSQELLGDGPPGPSSPMSRSQEYLLDEGPAPGTPPREARPGRHGHSIKRASVPPVPGKPRQVLPPGTSHFTPPQTPTKTRPGSPQALGGPHGPAPATAKVKPTPQLLPPTERPMSPRSLPQSPTHRGFAYVLPQPVEGEVGPAAPGPAPPPVPTAVPTLCLPPEADAEPGRPKKRAHSLNRYAASDSEPERDELLVPAAAGPYATVQRRVGRSHSVRAPAGADKNVNRSQSFAVRPRKKGPPPPPPKRSSSALASANLADEPVPDAEPEDGLLGVRAQCRRASDLAGSVDTGSAGSVKSIAAMLELSSIGGGGRAARRPPEGHPTPRPASPEPGRVATVLASVKHKEAIGPGGEVVNRRRTLSGPVTGLLATARRGPGESADPGPFVEDGTGRQRPRGPSKGEAGVEGPPLAKVEASATLKRRIRAKQNQQENVKFILTESDTVKRRPKAKEREAGPEPPPPLSVYHNGTGTVRRRPASEQAGPPELPPPPPPAEPPPTDLAHLPPLPPPEGEARKPAKPPVSPKPVLTQPVPKLQGSPTPTSKKVPLPGPGSPEVKRAHGTPPPVSPKPPPPPTAPKPVKAVAGLPSGSAGPSPAPSPARQPPAALAKPPGTPPSLGASPAKPPSPGAPALHVPAKPPRAAAAAAAAAAAPPAPPEGASPGDSARQKLEETSACLAAALQAVEEKIRQEDAQGPRDSAAEKSTGSILDDIGSMFDDLADQLDAMLE

Variants of: B1
Conditions: with tiam1_human TIAM1, Q13009
tiam1_human TIAM1, Q13009, sequence (Q13009 whole entry): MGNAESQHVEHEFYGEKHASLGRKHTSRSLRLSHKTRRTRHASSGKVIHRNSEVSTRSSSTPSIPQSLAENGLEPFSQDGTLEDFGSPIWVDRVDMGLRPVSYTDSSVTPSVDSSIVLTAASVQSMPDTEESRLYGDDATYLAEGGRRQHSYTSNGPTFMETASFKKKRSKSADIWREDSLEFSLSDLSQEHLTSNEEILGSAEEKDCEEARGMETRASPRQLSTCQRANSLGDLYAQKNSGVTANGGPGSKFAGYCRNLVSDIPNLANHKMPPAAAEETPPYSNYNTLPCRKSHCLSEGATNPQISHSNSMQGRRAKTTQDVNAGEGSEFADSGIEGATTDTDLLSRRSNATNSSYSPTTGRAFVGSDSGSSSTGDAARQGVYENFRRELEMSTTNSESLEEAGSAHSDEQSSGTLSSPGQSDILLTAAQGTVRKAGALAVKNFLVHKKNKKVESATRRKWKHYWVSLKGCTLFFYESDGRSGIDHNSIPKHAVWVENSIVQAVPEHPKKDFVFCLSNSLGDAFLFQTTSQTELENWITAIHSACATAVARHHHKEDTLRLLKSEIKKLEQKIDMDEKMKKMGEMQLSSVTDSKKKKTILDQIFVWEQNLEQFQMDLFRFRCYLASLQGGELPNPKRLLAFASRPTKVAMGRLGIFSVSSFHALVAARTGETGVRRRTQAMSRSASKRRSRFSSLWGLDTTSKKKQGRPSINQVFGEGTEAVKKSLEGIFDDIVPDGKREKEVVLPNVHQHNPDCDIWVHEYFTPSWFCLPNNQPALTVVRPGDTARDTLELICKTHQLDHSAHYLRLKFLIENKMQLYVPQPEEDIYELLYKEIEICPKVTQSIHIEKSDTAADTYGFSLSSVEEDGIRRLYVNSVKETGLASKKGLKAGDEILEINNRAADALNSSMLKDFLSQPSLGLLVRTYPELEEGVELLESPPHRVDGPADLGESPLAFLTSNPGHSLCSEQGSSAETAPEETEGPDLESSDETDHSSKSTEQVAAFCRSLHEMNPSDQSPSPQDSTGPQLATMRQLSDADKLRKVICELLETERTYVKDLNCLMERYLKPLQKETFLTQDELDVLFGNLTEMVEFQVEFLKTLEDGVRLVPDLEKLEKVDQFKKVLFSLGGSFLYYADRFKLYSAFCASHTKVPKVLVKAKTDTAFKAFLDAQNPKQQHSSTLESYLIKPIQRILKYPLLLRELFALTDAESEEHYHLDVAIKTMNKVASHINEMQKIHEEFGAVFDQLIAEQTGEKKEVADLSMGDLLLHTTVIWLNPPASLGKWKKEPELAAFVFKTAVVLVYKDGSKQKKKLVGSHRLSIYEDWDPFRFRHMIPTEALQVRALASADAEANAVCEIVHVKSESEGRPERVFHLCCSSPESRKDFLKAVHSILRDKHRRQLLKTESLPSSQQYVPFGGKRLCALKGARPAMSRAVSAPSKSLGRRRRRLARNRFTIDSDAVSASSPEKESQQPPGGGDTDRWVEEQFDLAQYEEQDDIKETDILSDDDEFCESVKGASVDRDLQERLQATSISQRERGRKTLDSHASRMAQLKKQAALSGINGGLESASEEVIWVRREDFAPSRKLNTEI

Question: For V117Q, which “effect of a mutation on the interaction” value is on record?
Answer: disrupting interaction

Question: For V117D, which “effect of a mutation on the interaction” value is on record?
Answer: disrupting interaction

Variants of: B1
Conditions: with cski1_human CASKIN1, Q8WXD9

Question: How did the “effect of a mutation on the interaction” value turn out when V117Q was run?
Answer: disrupting interaction

Question: For V117D, which “effect of a mutation on the interaction” value is on record?
Answer: disrupting interaction

Variants of: B2
Conditions: with apba1_human APBA1, Q02410

Question: How did the “effect of a mutation on the interaction” value turn out when V117Q was run?
Answer: disrupting interaction

Question: For V117D, which “effect of a mutation on the interaction” value is on record?
Answer: disrupting interaction

Variants of: B3
Conditions: with cskp_human CASK

Question: For I375A;W376A;V377A, which “effect of a mutation on the interaction” value is on record?
Answer: disrupting interaction

Question: For L378A;R379A;K380A, which “effect of a mutation on the interaction” value is on record?
Answer: disrupting interaction

Variants of: B3
Conditions: with cskp_human CASK, O14936

Question: For I375A, which “effect of a mutation on the interaction” value is on record?
Answer: disrupting interaction

Question: Which “effect of a mutation on the interaction” value does the source give for V377A here?
Answer: decreasing interaction

Question: With R379A as the variant, how does the “effect of a mutation on the interaction” value read?
Answer: decreasing interaction

Question: W376A was tested. Which “effect of a mutation on the interaction” value did it give?
Answer: disrupting interaction
